Patent publication US9688764B2, “Methods of treating breast cancer by administering anti-human prolactin receptor (PRLR) antibodies” (REGENERON PHARMACEUTICALS, INC., priority 2013, dated 2017)

B1: H1H6975N-DM1 (conjugate)
VH: EVHLVESGGGLVQPGGSLRLSCAASGFTFSSYEMNWVRQTPGKGLEWISHISSRSVIIYYADSVKGRFTISRDNAKNSLFLQMNSLRAEDTAVYFCAGITIFGIPEYWGQGTLVTVSS
VL: EIVLTQSPATLSLSPGERATLSCRASQSVSSYFAWYQQKPGQAPRLLIYDASSRATGIPTRFSGSGSGTDFTLTISSLEPEDFAVYYCQQRSSWPITFGQGTRLEIK
B2: H1H6782P-DM1: anti-PRLR antibody H1H6782P conjugated to DM1 through an SMCC linker (conjugate)
VH: EVQLVESGGGLVQPGRSLRLSCAASGFTFDDYAMHWVRQAPGKGLEWVSGIIWNSGHIGYGDSVKGRFTISRDNAKKSLYLQMNSLRAEDTALYYCARDSGRYQSYFDYWGQGTLVTVSS
VL: DIQMTQSPSTLSASVGDRVTITCRASHIISSWLAWYQQKPGKAPKVLIFKASSLESGVPSRFSGSGSGTEFTLTISSLQPDDFATYYCQQYNTYSRTFGQGTKVEIK
B3: H1H6959N2-DM1 (conjugate)
VH: EVQLVESGGGLVQPGRSLRLSCAASGFTFDDYAMHWVRQAPGKGLEWVSGISWHSGIIGYADSVKGRFTISRDNAKNSLYLQMNSLRTEDAALYYCAKIGSYFYFDSWGQGTLVTVSS
VL: EIVLTQSPGTLSLSPGERATLSCRASQSVSSNYLAWYQQKPGQAPRLLIYGASSRATGIPDRFSGSGSGTDFTLTISRLEPEDFAVYYCQQFGSSGYTFGQGTNLEIK
B4: H1H6960N-DM1 (conjugate)
VH: EVQLVESGGGLVKPGGSLRLSCAASGITFSSYSMNWVRQAPGKGLEWVSSISTRSSLIHYADSVKGRFTISRDNAKNSLYLQMNSLRDEDTAVYYCARWDAAAAFDYWGQGTLVIVSS
VL: DIQLTQSPSFLSASVGDRVTITCWASQGISSYLAWYQQKPGKAPKLLIYVASTLQSGVPSRFSGSGSGTEFTLTISSLQPEDFATYFCQQLNSYPLTFGGGTKVEIK

Assays:
[1] = test system: MCF7/PRLR tumors; assay: Tumor growth inhibition in xenograft-bearing mice; assay type: in vivo, NCr nude mice; details: for Final Tumor size mm^3 (mean ± SEM): MCF7/PRLR tumors TRIAL #2, NCr Nude mice, Day 63
Excerpt: (§1) Briefly, 20×10^6 MCF7/PRLR cells (ATCC HTB-22 transfected with full length hPRLR as previously described) were implanted subcutaneously into the left mammary fat pad of female NCr nude mice. In other studies, 10×10^6 PC3/PRLR (ATCC CRL-1435 transfected with full length hPRLR as previously described) were implanted subcutaneously into the left flank of male SCID mice. Additionally, 10×10^6 parental T47D (ATCC HTB-133) or […] T47D#11 cells (ATCC HTB-133 serially passaged in vivo as described below) were subcutaneously implanted into the left flank of female CB17 SCID mice. All mice were obtained from Taconic (Hudson, N.Y.). Each bolus of cells was supplemented with a 90-day estrogen release pellet (1.7 mg/pellet; Innovative Research America, Sarasota Fla.). Once tumors had reached an average volume of 250 mm^3, mice were randomized into groups of seven and dosed with anti-PRLR antibody-drug conjugates of the invention or control reagents. Control reagents included PBS vehicle, free methyl-disulfide DM1 (DM1-SMe) and isotype Control 1-DM1.
(§2) In multi-dose studies, mice were dosed once a week for a total of three weeks with tumor volumes and body weights being monitored twice weekly throughout the study. Test ADCs were dosed at 5 and/or 15 mg/kg in the multi-dose studies. In single-dose studies, mice received a single dose of test ADC, and tumor volumes and body weights were monitored twice weekly throughout the study. Test ADCs were dosed at 1, 2.5, 5, and 15 mg/kg in the single-dose studies. Average tumor size as well as tumor growth inhibition relative to the vehicle treated group were calculated for each group. Tumors were measured with calipers twice a week until the average size of the vehicle group reached 1000 mm^3. Tumor size was calculated using the formula (length×width^2)/2. Tumor growth inhibition was calculated according to the following formula: (1−((Tfinal−Tinitial)/(Cfinal−Cinitial)))*100, where T (treated group) and C (control group) represent the mean tumor mass on the day the vehicle group reached 1000 mm^3. […] Results are summarized in Tables 21-25 (multi-dose) and Table 26 (single dose). (NT=not tested in the particular experiment shown).

[2] = test system: PC3/hPRLR cells; assay: Cell viability (cell kill) assay; assay type: cell-based, human; details: PC3/PRLR; Table 11; 3 days
Excerpt: (§3) PRLR-overexpressing cells, including HEK293, PC3, MCF7 and NCI-N87, were generated to assess the ability of anti-PRLR conjugated antibodies to reduce cell viability. For comparative purposes, PC3 and T47D cells with overexpressed ErbB2 were also generated, as well as an MCF7 cell line over-expressing both hPRLR and hErbB2. Briefly, Lipofectamine® 2000-mediated transfection methodology was utilized to generate HEK293 cells expressing human PRLR (HEK293/hPRLR) or human ErbB2 (HEK293/hErbB2). Lipofectamine LTX with Plus Reagent was used to generate PC3 cells expressing human PRLR (PC3/hPRLR) or human ErbB2 (PC3/hErbB2). Lentiviral-mediated transduction was utilized to generate MCF7 cells expressing human PRLR (MCF7/hPRLR), NCI-N87 cells expressing human PRLR (NCI-N87/hPRLR), T47D cells over-expressing human ErbB2 (T47D/hErbB2), and MCF7 cells expressing both human PRLR and human ErbB2 (MCF7/hPRLR/hErbB2). All lines were selected for at least two weeks in complete growth media plus appropriate selection reagents. Stably expressing populations were enriched for PRLR expression via FACS using the anti PRLR antibody Control I.
(§4) Next, the ability of anti-PRLR-DM1 antibody-drug conjugates (i.e., anti-PRLR antibodies conjugated to DM1 via a non-cleavable linker [SMCC]) to reduce cell viability was determined using in vitro cell based assays. Cells were seeded in PDL-coated 96 well plates at 1500 to 10000 cells per well in complete growth media and allowed to grow overnight. For cell viability curves, ADCs or free DM1 (as the methyl disulfide derivative DM1-SMe) were added to the cells at final concentrations ranging from 500 nM to 5 pM and incubated for 3 days. The 293, PC3 and T47D cells were incubated with CCK8 (Dojindo, Rockville, Md.) for the final 1-3 hours and the absorbance at 450 nm (OD450) was determined on a Flexstation3 (Molecular Devices, Sunnyvale, Calif.). MCF7 cells were treated with Hoechst 33342 nuclear stain while being fixed with 4% formaldehyde. Images were acquired on the ImageXpress micro XL (Molecular Devices, Sunnyvale, Calif.) and nuclear counts were determined via Columbus image analysis software (Perkin Elmer, Shelton, Conn.). Background OD450 values (PC3, 293, and T47D) or nuclear counts (MCF7) from digitonin (40 nM) treated cells was subtracted from all wells and viability was expressed as a percentage of the untreated controls. IC50 values were determined from a four-parameter logistic equation over a 10-point response curve (GraphPad Prism).
(§5) Finally, the potency of anti-PRLR antibodies conjugated to DM1 via the non-cleavable linker SMCC was compared to the cell killing potency of anti-PRLR antibodies conjugated to MMAE via the cleavable linker: mc-vc-PAB (available from Concortis, San Diego, Calif.). Cells used in this experiment were PC3, PC3/hPRLR, MCF7/ATCC and MCF7/PRLR.

[3] = test system: HEK293 (293) cells; assay: Cell viability (cell kill) assay; assay type: cell-based; details: 293; Table 11; 3 days
Excerpt: as §3, §4

[4] = test system: T47D cells; assay: Cell viability (cell kill) assay; assay type: cell-based; details: T47D, Table 12, 3 days; for IC50: read-out: IC50
Protocol: as §4
Additionally, the impact of the PRLR ligand, PRL, on PRLR-SMCC-DM1 cell kill in T47D cells was assessed. T47D cells were incubated simultaneously with PRL (15 nM) and either a non-blocking anti PRLR antibody (H1H6782P) or a receptor blocking antibody (H1H6958N2).
(§6) Additional toxins (DM4, MeNHC3-May, and MMD) conjugated to anti-PRLR antibodies were also tested in T47D and MCF7/hPRLR cell lines, and results are summarized in Tables 19 (293 and T47D cell killing) and 20 (MCF7/ATCC and MCF7/PRLR cell killing). (ND=not detected).

[5] = test system: PC3/PRLR tumors; assay: Tumor growth inhibition in xenograft-bearing mice; assay type: in vivo, SCID mice; details: for Average Tumor Growth Inhibition (%): multi-dose 15 mg/kg, SCID mice
Excerpt: as §1, §2

[6] = test system: PC3 cells; assay: Cell viability (cell kill) assay; assay type: cell-based; details: Table 11, 3 days
Excerpt: as §3, §4, §5

[7] = test system: MCF7 (MCF7/ATCC) cells; assay: Cell viability (cell kill) assay, nuclear counts; assay type: cell-based; details: MCF7; Table 12; 3 days
Excerpt: as §3, §4, §5, §6

[8] = test system: MCF7/hPRLR (MCF7/PRLR) cells; assay: Cell viability (cell kill) assay, nuclear counts; assay type: cell-based, human; details: Table 12, 3 days
Excerpt: as §3, §4, §5, §6

[9] = Conjugate characterization: protein and linker/payload concentrations, payload loading (UV, MALDI-TOF, SEC-HPLC, RP-HPLC); assay type: physicochemical; details: Anti-PRLR-SMCC-DM1 conjugates; Table 9
Excerpt: Selected anti-PRLR antibodies were conjugated to the maytansinoid DM1 through an SMCC linker using methods similar to those set forth in U.S. Pat. No. 5,208,020 and US Patent Application Publication No. 2010/0129314, the disclosures of which are incorporated by reference herein in their entireties. The conjugates were purified by size exclusion chromatography and sterile filtered. All starting materials and solvents were purchased commercially and used without purification, unless otherwise noted.
Protein and linker/payload concentrations were determined by UV spectral analysis and MALDI-TOF mass spectrometry. Size-exclusion HPLC established that all conjugates used were >95% monomeric, and RP-HPLC established that there was <0.5% unconjugated linker payload. Yields are reported in Table 8 and 9 based on protein. All conjugated antibodies were analyzed by UV for linker payload loading values according to Hamblett et al, 2004, Clinical Cancer Research 10(20):7063-7070, and by mass difference, native versus conjugated.

[10] = test system: T47D#11 tumors; assay: Tumor growth inhibition in xenograft-bearing mice; assay type: in vivo, CB17 SCID mice
Excerpt: as §1, §2

[11] = test system: HEK293/hPRLR (293/hPRLR) cells; assay: Cell viability (cell kill) assay; assay type: cell-based, human; details: 293/PRLR, Table 11, 3 days; for IC50: read-out: IC50
Excerpt: as §3, §4

Molecule	% Kill [2] [%]	IC50 [2] [nM]	% Kill [3] [%]	IC50 [3] [nM]	% Kill [4] [%]	IC50 [4] [nM]	% Kill [7] [%]	IC50 [7] [nM]	% Kill [8] [%]	IC50 [8] [nM]	Payload:Antibody Molar Ratio (MS) [9]	Payload:Antibody Molar Ratio (UV) [9]	% Kill [11] [%]	IC50 [11] [nM]	further results
B1	68	2.7	87	100	80	6.9	73	150	87	0.49	–	–	–	–	effect on MCF7/PRLR tumor growth ([1]; multi-dose trial 1, 5 and 15 mg/kg): potently inhibited MCF7/PRLR tumor growth; Average Tumor Growth Inhibition (%) ([5]; PC3/PRLR tumors TRIAL #1, Day 63): 38%; effect on PC3/PRLR tumor growth ([5]; multi-dose, especially at 15 mg/kg): demonstrated inhibition of tumor growth; IC50 [6]: 200 nM
B2	64	0.92	–	100	74	4.19	57	120	85	0.65	2.8	–	–	–	Final Tumor size mm^3 (mean ± SEM) ([1]; multi-dose 5 mg/kg): 74 ± 34 mm^3; Final Tumor size mm^3 (mean ± SEM) ([1]; multi-dose 15 mg/kg): 0 ± 0 mm^3; Average Tumor Growth Inhibition (%) ([5]; PC3/PRLR tumors TRIAL #2, Day 55): 85%; Average Tumor Growth Inhibition (%) ([10]; T47D#11 tumors, multi-dose 5 mg/kg, SCID mice, Day 66): 90%; effect on T47D#11 tumor growth ([10]; multi-dose, 5 and 15 mg/kg): potently inhibited tumor growth
B3	82	11.6	100	–	71	48.9	82	100	80	0.47	3.3	3.8	95	4.82	–
B4	82	1.13	100	–	71	5.1	77	100	78	0.29	3.0	3.6	95	0.38	–
